# Reference: patent publication US20230001006A1 (GAMAMABS PHARMA, published 2023)
# T1: AMHRII on the COV434 AMHRII transfected cell line (~80,000 receptors) (human, UniProt Q16671 18-573)
# T1 sequence: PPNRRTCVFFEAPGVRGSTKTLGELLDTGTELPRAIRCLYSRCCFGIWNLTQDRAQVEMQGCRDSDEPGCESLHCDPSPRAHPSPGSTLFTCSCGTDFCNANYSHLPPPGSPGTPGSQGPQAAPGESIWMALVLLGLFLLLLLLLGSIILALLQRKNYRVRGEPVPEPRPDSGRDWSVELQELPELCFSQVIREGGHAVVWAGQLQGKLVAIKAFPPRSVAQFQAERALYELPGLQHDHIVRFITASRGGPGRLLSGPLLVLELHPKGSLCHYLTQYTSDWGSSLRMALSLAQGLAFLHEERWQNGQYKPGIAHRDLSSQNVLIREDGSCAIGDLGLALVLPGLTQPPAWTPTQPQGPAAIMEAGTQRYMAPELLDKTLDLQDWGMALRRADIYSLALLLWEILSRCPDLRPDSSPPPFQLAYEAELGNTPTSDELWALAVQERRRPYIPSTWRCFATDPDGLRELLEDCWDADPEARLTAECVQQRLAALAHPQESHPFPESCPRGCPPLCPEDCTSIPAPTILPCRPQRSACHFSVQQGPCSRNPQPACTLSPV
# B1: GM104 (antibody, human IgG1, kappa)
# heavy: QVRLVQSGAEVKKPGASVKVSCKASGYTFTSYHIHWVRQAPGQRLEWMGWIYPGDDSTKYSQKFQGRVTITRDTSASTAYMELSSLRSEDTAVYYCTRGDRFAYWGQGTLVTVSSASTKGPSVFPLAPSSKSTSGGTAALGCLVKDYFPEPVTVSWNSGALTSGVHTFPAVLQSSGLYSLSSVVTVPSSSLGTQTYICNVNHKPSNTKVDKRVEPKSCDKTHTCPPCPAPELLGGPSCVFLFPPKPKDTLMISRTPEVTCVVVDVSHEDPEVKFNWYVDGVEVHNAKTKPREEQYNSTYRVVSVLTVLHQDWLNGKEYKCKVSNKALPAPIEKTISKAKGQPREPQVYTLPPSREEMTKNQVSLTCLVKGFYPSDIAVEWESNGQPENNYKTTPPVLDSDGSFFLYSKLTVDKSRWQQGNVFSCSVMHEALHNHYTQKSLSLSPGK
# light: DIQMTQSPSTLSASVGDRVTITCRASSSVRYIAWYQQKPGKAPKLLTYPTSSLESGVPSRFSGSGSGTEFTLTISSLQPDDFATYYCLQWSSYPWTFGGGTKVEIKRTVAAPSVFIFPPSDEQLKSGTASVVCLLNNFYPREAKVQWKVDNALQSGNSQESVTEQDSKDSTYSLSSTLTLSKADYEKHKVYACEVTHQGLSSPVTKSFNRGEC
# notes: also called GM104 ADC; ADC according to the invention
# Experiments:
# [1] = biological target: T2, anti-Müllerian hormone type II receptor (AMHRII), immobilised on the SPR chip (human, UniProt Q16671 18-149, limits assumed); assay: SPR (Bia3000, 25°C), AMHRII covalently immobilised on a CM5 chip, ADC injected, Langmuir 1:1 fit (Example 3)
# T2 construct: also called AMHR2
# Protocol: All kinetic measurements are performed on a Bia3000 apparatus at 25° C. in PBS pH 7.4 containing 0.005% of P20 surfactant at 50 μl/min on control and AMHRII Flowcells. The antibody is injected during 180 s at concentrations given in the appendix. After a dissociation step of 400 s in running buffer, sensor surfaces are regenerated using one pulse of 15 μl of Gly-HCL pH1.7. All the sensorgrams are corrected by subtracting the low signal from the control reference surface and blank buffer. Kinetic parameters are evaluated from the sensorgrams using a Langmuir 1:1 model on the BiaEvaluation software 4.2.
# For kinetic studies all the mAb and ADC are injected at various concentrations (0.7 nM-100 nM). The sensorgrams are evaluated by L1:1 fitting model (BiaEvaluation 4.2 software) starting of minimum 3 (n=3) separated experiments or fits to obtain average values for ka, kd and KD with standard deviation (SD). Several experiments are performed on the same AMHRII-coated surface after verification of the responses stability to 10 nM injection of 3C23K before and after the experiment series with each mAb/ADC. All results are obtained from two AMHRII-coated Flowcells.
# [2] = biological target: T1, AMHRII on the COV434 AMHRII transfected …; assay: cell-based or functional assay
# FcRn = biological target: T3, FcRn; assay: SPR ('Binding SPR (KD)' row FcRn); set-up not given
# T3 construct: also called neonatal Fc receptor
binder,measurement,setting,value
B1,Kd,[1],1.7 nM
same,"IC50, proliferation/viability of COV434 AMHRII transfected cells after 72 h (CellTiter Blue)",[2],0.22 nM
same,Kd,FcRn,22 nM
